Measurements reported in patent CN114106162A (ANYUAN MEDICINE SCIENCE AND TECH SHANGHAI LIMITED COMPANY, dated 2022).

Assays:
[1] = biological target: T1, SARS-CoV-2 S1蛋白 (ACRO Biosystems) (SARS-CoV-2, UniProt P0DTC2 16-685); experiment: competition ELISA, S1 coated, HRP-hACE2-Fc as competitor
T1 construct: domain: S1

刺突S蛋白-鼠Fc融合蛋白(S-mFc) = 刺突S蛋白-鼠Fc融合蛋白(S-mFc) (SARS-CoV-2; mouse, UniProt P0DTC2 14-1213); experiment: FACS competition: antibody blocks binding of S-mFc to 293T-ACE2 cells

Binder | EC50 [1] | IC50 (刺突S蛋白-鼠Fc融合蛋白(S-mFc))
人源化抗体hS1B-82-5 (antibody, V domains shown, also called 抗SARS-CoV-2 S1人源化抗体; 人源化单克隆抗体hS1B-82-5) VH: EVILSESGGGSVKPGGSLRLSCAASGFTFSSYAMSWIRQAPGKRLEWGSTINSGGNFIYYPDSVKGRFTISRDNAKNSLYLQMNSLRAEDTAVYFCGRHSGNYVDSAMDYWGQGTTVTVSS VL: EIVLTQSPATLSVSPGERATLSCSASSSVSDMHWYQQKPGKSPKLLIYSTSNLASGVPSRFSGSGSGTEYTLTISSLQPEDVATYYCHQWSTWTFGGGTKVEIKR | 0.166 mg/L | 0.0193 mg/L
鼠源单克隆抗体S1B-82-5 (antibody, V domains shown, also called 鼠源抗体S1B-82-5; 鼠抗S1B-82-5) VH: EVILVESGGGLVKPGGSLKLSCAASGFTFSSYAMSWIRQTPEKRLEWGATINSGGNFIYYPDSVKGRFTISRDNAKNTLYLQMSSLRSEDTAMYFCGRHSGNYVDSAMDYWGQGTSVTVSS VL: QIVLTQSPAIMSASLGEEITLTCSASSSVSDMHWYQQKSGSSPKLLIYSTSNLASGVPSRFSGSGSGTFYSLTVSSVEAEDAADYYCHQWSTWTFGGGTKLEIK | – | 0.016 mg/L
